Our source for the fold microtubule binding relative to WT protein values is publication PMC7654188.

The experiment addresses preassembled microtubule filaments (tubulin polymerised with Taxol). The experiment can be described thus: co-sedimentation; microtubule spin-down assay (Cytoskeleton BK029): 5, 10 and 20 ug of COS1 lysate with or without Taxol-stabilised microtubule, room temperature 30 min, 60% glycerol cushion, 100,000 x g 40 min; pellet blotted with HA tag and alpha-tubulin antibodies.

“HA-tagged CTTNBP2 D570Y (natural protein)” gave a fold microtubule binding relative to WT protein of 2.5 to 4 fold.
